The term Kd denotes the concentration at which binding is half-saturated.

The subject of data set [1] is Flavo-KRS (monomeric full-length KRS with E. coli flavodoxin inserted at G310) (Homo sapiens / Escherichia coli fusion). As to the kind of experiment: EMSA. The following applies: affinity from percent free tRNA; slightly weaker than native KRS; 0.1 uM tRNA; 20 mM HEPES pH 7.5, 20 mM KCl, 5 mM MgCl2, 2 mM DTT, on ice. On the technique in general: In EMSA bound probe runs differently from free probe, usually more slowly.

The target in data set [2] is KRS (lysyl-tRNA synthetase, full-length 1-597) (Homo sapiens) (UniProt Q15046). Nature of the data set: EMSA. Particulars: affinity from percent free tRNA; 0.1 uM tRNA; 20 mM HEPES pH 7.5, 20 mM KCl, 5 mM MgCl2, 2 mM DTT, on ice.
KRS (lysyl-tRNA synthetase, full-length 1-597) (Homo sapiens), sequence (Q15046 whole entry): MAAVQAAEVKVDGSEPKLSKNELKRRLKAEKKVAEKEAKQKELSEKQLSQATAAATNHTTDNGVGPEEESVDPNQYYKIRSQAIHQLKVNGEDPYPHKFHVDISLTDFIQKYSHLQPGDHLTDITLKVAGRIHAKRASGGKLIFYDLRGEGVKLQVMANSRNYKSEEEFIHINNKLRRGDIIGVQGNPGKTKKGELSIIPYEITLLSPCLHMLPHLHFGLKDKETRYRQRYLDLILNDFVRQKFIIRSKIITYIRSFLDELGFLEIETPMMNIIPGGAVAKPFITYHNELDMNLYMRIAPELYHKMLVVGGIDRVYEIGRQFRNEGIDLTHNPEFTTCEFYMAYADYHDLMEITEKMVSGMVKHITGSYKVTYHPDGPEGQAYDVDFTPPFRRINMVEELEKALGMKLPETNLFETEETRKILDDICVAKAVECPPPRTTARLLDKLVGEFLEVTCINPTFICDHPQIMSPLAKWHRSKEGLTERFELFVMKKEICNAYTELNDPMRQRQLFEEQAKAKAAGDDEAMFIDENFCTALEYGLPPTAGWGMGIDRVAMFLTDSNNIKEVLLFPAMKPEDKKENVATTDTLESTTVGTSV

As for human tRNALys3 (in vitro transcript), the figures for the dissociation constant Kd in data set [1] and in data set [2] were 1210 nM and 870 nM, respectively.
